Two substances from publication PMC8207546 can be followed below.

Series [1] is described as follows: in vitro fusion of GFP-LC3 and LAMP2B-mCherry vesicles. To be noted: glycan gained; control: non-O-GlcNAcylated His-GRASP55.
The nature of series [2]: LC3-LAMP2 co-IP with added recombinant GRASP55. To be noted: glycan gained; control: non-O-GlcNAcylated His-GRASP55 (coexpressed with GST).

For GRASP55: O-GlcNAcylated His-GRASP55, in series [1], the “other: autophagosome-lysosome fusion activity” value is reported as “decreases”.

As for “GRASP55: O-GlcNAcylated His-GRASP55 (coexpressed with GST-OGT)”, the “other: bridging of LC3-LAMP2 interaction” value in series [2] is recorded as “decreases”.
